Results reported in patent US20200255542A1 (Merck Sharp & Dohme, published 2020).

T1: Human Factor XIIa Protease (human, UniProt P00748 20-615, limits assumed)
T1 construct: also called FXIIa; Human Factor Xlla Protease
T1 sequence (looked up): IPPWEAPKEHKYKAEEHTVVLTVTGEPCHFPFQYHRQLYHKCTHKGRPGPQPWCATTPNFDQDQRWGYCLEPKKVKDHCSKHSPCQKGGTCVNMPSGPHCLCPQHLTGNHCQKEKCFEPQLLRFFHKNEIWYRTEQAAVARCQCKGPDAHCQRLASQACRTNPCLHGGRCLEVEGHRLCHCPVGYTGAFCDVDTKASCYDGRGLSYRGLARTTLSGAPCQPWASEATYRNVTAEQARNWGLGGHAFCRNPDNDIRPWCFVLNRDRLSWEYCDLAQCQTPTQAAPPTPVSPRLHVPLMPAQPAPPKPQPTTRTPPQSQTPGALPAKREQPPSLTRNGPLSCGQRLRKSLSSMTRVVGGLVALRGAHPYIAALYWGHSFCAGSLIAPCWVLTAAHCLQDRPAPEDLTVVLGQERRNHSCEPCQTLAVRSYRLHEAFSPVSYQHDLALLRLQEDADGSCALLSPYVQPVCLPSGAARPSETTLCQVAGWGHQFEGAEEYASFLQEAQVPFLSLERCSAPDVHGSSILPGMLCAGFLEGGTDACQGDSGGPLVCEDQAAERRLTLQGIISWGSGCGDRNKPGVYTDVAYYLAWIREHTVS

T2: Human Factor VIIa Protease (human, UniProt P08709 61-466)
T2 construct: also called FVIIa; HCVIIA-0031
T2 sequence (looked up): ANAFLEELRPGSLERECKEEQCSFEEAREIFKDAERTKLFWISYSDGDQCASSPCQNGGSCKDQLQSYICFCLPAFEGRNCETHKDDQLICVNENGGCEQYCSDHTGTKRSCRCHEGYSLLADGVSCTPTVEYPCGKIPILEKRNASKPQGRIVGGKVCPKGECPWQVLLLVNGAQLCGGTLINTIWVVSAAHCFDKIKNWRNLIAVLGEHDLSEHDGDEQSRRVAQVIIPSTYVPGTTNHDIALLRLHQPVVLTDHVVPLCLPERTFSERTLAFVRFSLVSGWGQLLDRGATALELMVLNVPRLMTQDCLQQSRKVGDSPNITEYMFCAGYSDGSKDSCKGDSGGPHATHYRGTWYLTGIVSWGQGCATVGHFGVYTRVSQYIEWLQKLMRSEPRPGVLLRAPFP

T3: Human Factor VII (human, UniProt P08709 61-466)
T3 construct: also called FVII; HCVII-0030
T3 sequence (looked up): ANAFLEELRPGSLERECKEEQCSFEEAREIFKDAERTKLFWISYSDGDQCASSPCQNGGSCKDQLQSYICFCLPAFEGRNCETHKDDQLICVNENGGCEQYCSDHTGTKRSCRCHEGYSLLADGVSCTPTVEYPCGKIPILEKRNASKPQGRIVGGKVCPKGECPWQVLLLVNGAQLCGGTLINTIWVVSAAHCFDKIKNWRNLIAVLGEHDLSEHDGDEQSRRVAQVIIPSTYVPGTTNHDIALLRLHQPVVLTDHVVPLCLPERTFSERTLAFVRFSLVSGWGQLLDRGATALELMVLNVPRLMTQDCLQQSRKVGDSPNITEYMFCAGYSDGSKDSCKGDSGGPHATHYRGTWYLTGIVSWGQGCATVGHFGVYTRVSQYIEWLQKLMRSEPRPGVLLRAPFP

T4: Human Factor XII (human, UniProt P00748 20-615)
T4 construct: also called FXII; HFXII 1212
T4 sequence (looked up): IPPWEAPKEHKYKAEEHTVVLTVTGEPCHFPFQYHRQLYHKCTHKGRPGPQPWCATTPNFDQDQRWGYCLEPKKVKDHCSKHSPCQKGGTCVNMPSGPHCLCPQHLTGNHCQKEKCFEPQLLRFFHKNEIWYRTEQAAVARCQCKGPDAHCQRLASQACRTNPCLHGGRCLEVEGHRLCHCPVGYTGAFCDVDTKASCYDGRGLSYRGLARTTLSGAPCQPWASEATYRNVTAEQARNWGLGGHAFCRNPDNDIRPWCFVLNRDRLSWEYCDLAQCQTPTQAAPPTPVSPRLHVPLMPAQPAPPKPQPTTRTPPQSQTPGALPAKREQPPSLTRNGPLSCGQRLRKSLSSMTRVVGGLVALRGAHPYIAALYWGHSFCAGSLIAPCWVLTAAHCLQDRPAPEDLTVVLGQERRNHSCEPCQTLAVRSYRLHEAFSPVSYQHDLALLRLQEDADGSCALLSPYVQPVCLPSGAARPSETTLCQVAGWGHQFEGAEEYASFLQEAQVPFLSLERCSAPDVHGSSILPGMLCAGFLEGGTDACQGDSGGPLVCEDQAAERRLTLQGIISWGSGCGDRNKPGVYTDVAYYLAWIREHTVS


Legend:
human FXIa [1] = biological target: T5, human FXIa (human, UniProt P03951 19-625); assay: SPR (ProteOn XPR36), antibody captured by anti-human IgG Fc, FXIa as analyte; mean ± SD, N=3
T5 construct: also called Factor XIa
Protocol: (§1) After capture of anti-FXI antibodies, running buffer (1×HBS-N, 5 mM CaCl₂, 0.005% P20, pH 7.4) was injected across all horizontal flow channels (A1-A6) for 5 minutes and allowed to dissociate for 20 minutes at 25 μL/min to remove any non-specifically bound anti-FXI antibodies from the chip surface.
(§2) After capture of anti-FXI antibodies, running buffer was injected across all horizontal flow channels (A1-A6) for 5 minutes and allowed to dissociate for 20 minutes at 25 L/minutes to remove non-specifically bound anti-FXI antibodies from the chip surface.

cynomolgus monkey FXIa = biological target: T6, cynomolgus monkey FXIa (cynomolgus monkey, UniProt A0A2K5VVW4 19-624); assay: as above
T6 construct: also called NHP FXIa
T6 sequence (A0A2K5VVW4 entry or part of it): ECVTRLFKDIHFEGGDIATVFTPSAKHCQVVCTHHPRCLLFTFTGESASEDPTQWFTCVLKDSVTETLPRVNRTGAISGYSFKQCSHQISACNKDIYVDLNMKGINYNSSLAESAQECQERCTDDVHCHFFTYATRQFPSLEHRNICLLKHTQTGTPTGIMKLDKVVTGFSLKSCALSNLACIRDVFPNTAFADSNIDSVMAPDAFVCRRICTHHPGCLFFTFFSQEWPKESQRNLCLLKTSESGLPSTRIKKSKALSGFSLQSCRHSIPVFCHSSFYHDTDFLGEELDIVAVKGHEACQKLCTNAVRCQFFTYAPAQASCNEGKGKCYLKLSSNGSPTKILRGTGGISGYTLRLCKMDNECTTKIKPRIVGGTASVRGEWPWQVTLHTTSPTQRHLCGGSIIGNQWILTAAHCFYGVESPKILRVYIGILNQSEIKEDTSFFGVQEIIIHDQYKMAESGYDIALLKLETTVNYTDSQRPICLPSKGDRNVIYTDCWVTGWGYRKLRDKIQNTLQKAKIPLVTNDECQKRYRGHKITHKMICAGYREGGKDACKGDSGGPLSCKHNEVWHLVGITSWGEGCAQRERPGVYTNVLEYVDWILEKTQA
Protocol: as §1, §2

rhesus monkey FXIa = biological target: T7, rhesus monkey FXIa (rhesus monkey, UniProt F6PJ95 19-624); assay: as above
T7 construct: also called NHP FXIa
T7 sequence (F6PJ95 entry or part of it): as the sequence (A0A2K5VVW4 entry or part of it) above, with N101D, E113K, V126I, A191V counted along it
Protocol: as §1, §2

[2] = biological target: T8, rhesus monkey FXI zymogen (rhesus monkey, UniProt F6PJ95 19-624); assay: SPR (ProteOn XPR36), antibody captured by anti-human IgG Fc, FXI as analyte; mean ± SD, N=3
T8 construct: also called Rhesus FXI; NHP FXI
T8 sequence (F6PJ95 entry or part of it): as the sequence (A0A2K5VVW4 entry or part of it) above, with N101D, E113K, V126I, A191V counted along it
Protocol: as §1, §2

[3] = biological target: T9, human coagulation Factor XI (FXI) zymogen (human, UniProt P03951 19-625); assay: as above
T9 construct: Homodimeric zymogen; plasma-derived (Haematologic Technologies, HCXI-0150); also called human FXI; Human Factor XI
Protocol: as §1, §2

[4] = biological target: T10, cynomolgus monkey FXI zymogen (cynomolgus monkey, UniProt A0A2K5VVW4 19-624); assay: as above
T10 construct: also called cyno FXI; NHP FXI
T10 sequence (A0A2K5VVW4 entry or part of it): as the sequence (A0A2K5VVW4 entry or part of it) above
Protocol: as §1, §2

[5] = biological target: T11, Human Factor IXa Protease (human, UniProt P00740 47-191; P00740 227-461); assay: SPR (Biacore T200), mAb captured on anti-human IgG (Fc) chip, single analyte concentration;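 also: Anti-FXI mAbs captured about 500 RU, anti-RSV mAb as reference, coagulation cascade proteins injected at 500 nM (FXI 5 nM), 25 °C, HBS-EP+ pH 7.4, 1:1 fit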
T11 construct: also called FIXa; HFIXa 1080
Protocol: (§3) Anti-FXI mAbs were captured on a CM5 sensor chip immobilized with anti-human IgG (Fc) capture kit (GE Healthcare) at approximately 500 RU to minimize potential background from co-purifying Igs in plasma derived proteins. Negative control antibody, anti-respiratory syncytial virus (RSV) monoclonal antibody (mAb), was used as a reference and to help reduce background binding of plasma-derived proteins. Binding kinetics was measured using an analyte concentration of FXI at 5 nM; all other coagulation cascade proteins were used at an analyte concentration of 500 nM. Single concentration injections (n=2) were run at 30 μL/min, 25° C., HBS-EP+, pH 7.4.
(§4) Biacore T200 evaluation software was used to fit data to a 1:1 binding model to determine the association rate constant, kₐ (M⁻¹ s⁻¹, where “M” equals molar and “s” equals seconds) and the dissociation rate constant, kd (s⁻¹). These rate constants were used to calculate the equilibrium dissociation constant, KD (M).

[6] = biological target: T12, Rhesus monkey plasma Kallikrein (rhesus monkey, UniProt A0A1D5Q7U7 20-638); assay: as above
T12 construct: Recombinant, Merck Sharp & Dohme; also called NHP plasma kallikrein; lot 00AJF; not shown: C-terminal His tag
T12 sequence (A0A1D5Q7U7 entry or part of it): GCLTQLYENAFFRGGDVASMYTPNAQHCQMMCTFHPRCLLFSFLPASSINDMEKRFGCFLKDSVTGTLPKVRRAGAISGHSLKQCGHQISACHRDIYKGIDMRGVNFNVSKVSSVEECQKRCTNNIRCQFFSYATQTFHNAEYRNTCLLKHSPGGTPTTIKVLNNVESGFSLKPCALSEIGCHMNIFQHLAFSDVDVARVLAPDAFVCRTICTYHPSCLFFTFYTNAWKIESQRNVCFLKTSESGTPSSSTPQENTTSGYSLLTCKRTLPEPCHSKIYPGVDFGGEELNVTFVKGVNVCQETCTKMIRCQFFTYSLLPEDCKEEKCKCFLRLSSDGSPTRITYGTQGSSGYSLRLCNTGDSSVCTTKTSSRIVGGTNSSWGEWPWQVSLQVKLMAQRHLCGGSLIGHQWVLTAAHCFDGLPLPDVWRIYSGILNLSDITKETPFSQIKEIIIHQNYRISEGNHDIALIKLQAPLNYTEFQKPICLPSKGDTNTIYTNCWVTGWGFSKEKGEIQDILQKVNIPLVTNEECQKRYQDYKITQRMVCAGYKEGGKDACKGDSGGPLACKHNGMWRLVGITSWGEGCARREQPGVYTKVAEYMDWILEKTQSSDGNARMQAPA

Human Factor Xa Protease = biological target: T13, Human Factor Xa Protease (human, UniProt P00742 41-179; P00742 235-488, limits assumed); assay: as above
T13 construct: also called FXa; HFXa 1011
Protocol: as §3, §4

[7] = biological target: T1, Human Factor XIIa Protease; assay: as above
Protocol: as §3, §4

[8] = biological target: T2, Human Factor VIIa Protease; assay: as above
Protocol: as §3, §4

Human Factor VII = biological target: T3, Human Factor VII; assay: as above
Protocol: as §3, §4

[9] = biological target: Human Factor II (α-thrombin) (human, UniProt P00734 328-622); assay: as above
Protocol: as §3, §4

Human Factor X = biological target: T14, Human Factor X (human, UniProt P00742 41-488); assay: as above
T14 construct: also called FX; HFX1010
Protocol: as §3, §4

Human plasma Kallikrein = biological target: T15, Human plasma Kallikrein (human, UniProt P03952 20-638); assay: as above
T15 construct: also called HPKa 1303
T15 sequence (P03952 20-638 limits assumed): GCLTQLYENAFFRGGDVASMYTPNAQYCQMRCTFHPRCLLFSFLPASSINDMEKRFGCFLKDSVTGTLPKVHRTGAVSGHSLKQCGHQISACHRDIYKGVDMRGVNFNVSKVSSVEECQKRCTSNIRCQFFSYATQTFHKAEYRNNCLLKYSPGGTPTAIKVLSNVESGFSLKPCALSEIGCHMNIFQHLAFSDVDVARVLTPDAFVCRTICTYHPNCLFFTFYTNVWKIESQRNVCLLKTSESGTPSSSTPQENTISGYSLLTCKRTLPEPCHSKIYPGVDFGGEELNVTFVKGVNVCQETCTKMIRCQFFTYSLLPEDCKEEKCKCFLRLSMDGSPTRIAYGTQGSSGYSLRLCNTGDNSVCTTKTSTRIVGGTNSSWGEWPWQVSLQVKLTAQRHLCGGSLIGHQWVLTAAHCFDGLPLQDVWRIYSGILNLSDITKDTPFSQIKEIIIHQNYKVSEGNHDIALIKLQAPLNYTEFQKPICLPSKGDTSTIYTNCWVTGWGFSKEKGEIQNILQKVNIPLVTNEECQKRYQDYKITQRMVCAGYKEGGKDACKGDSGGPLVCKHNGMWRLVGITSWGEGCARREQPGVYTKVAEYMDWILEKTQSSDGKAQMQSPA
Protocol: as §3, §4

[10] = biological target: T16, Human Factor II (Prothrombin) (human, UniProt P00734 44-622); assay: as above
T16 construct: also called FII; lot 41AHG
Protocol: as §3, §4

Human Factor IX = biological target: T17, Human Factor IX (human, UniProt P00740 47-461); assay: as above
T17 construct: also called FIX; FIX zymogen
Protocol: as §3, §4

[11] = biological target: T18, Human plasma preKallikrein (human, UniProt P03952 20-638); assay: as above
T18 construct: also called HPK 1302
T18 sequence (P03952 20-638 limits assumed): as above
Protocol: as §3, §4

Human Factor XII = biological target: T4, Human Factor XII; assay: as above
Protocol: as §3, §4

human FXIa [12] = biological target: T5, human FXIa; assay: cell-based or functional assay
[13] = biological target: T9, human coagulation Factor XI (FXI) …; assay: cell-based or functional assay
[14] = biological target: T9, human coagulation Factor XI (FXI) …; assay: cell-based or functional assay; remark: listed apart in the source
[15] = biological target: T19, Cynomolgus monkey plasma Kallikrein (cynomolgus monkey, UniProt A0A2K5VTJ9 20-638); assay: SPR (Biacore T200), mAb captured on anti-human IgG (Fc) chip, single analyte concentration;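 also: Anti-FXI mAbs captured about 500 RU, anti-RSV mAb as reference, coagulation cascade proteins injected at 500 nM (FXI 5 nM), 25 °C, HBS-EP+ pH 7.4, 1:1 fit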
T19 construct: Recombinant, Merck Sharp & Dohme; also called NHP plasma kallikrein; lot 65AJE; not shown: C-terminal His tag
T19 sequence (A0A2K5VTJ9 entry or part of it): as the sequence (A0A1D5Q7U7 entry or part of it) above, with N24T counted along it

Binder	Kd (human FXIa [1])	Kd (cynomolgus monkey FXIa)	Kd (rhesus monkey FXIa)	Kd [2]	Kd [3]	Kd [4]	binding result [5]	binding result [6]	binding result (Human Factor Xa Protease)	binding result [7]	binding result [8]	binding result (Human Factor VII)	binding result [9]	binding result (Human Factor X)	binding result (Human plasma Kallikrein)	binding result [10]	binding result (Human Factor IX)	binding result [11]	binding result (Human Factor XII)	FXIa IC50 nM (native, full-length substrate; activation of FIX to FIXa) (human FXIa [12])	other results
αFXI-18623p IgG4 HC (S228P)(Q1)/LC Kappa (antibody, V domains shown, Fully human IgG4 (S228P)/kappa; also called αFXI-18623p-IgG4 (S228P) (Q1)/LC Kappa) VH: QVQLQESGPGLVKPSQTLSLTCTVSGGSIYSGAYYWSWIRQHPGKGLEWIGSIHYSGLTYYNPSLKSRVTISVDTSKNQFSLKLSSVTAADTAVYYCARDVDDSSGDEHYGMDVWGQGTTVTVSS VL: DIQMTQSPSSVSASVGDRVTITCRASQGIDSWLAWYQQKPGKAPKLLIYAASSLQSGVPSRFSGSGSGTDFTLTISSLQPEDFATYYCQQYHIVPITFGGGTKVEIKR	0.0374 nM	0.0195 nM	0.149 nM	0.0722 nM	0.0226 nM	0.013 nM	no binding (tested: 500 nM)	no binding (tested: 500 nM)	no binding (tested: 500 nM)	no binding (tested: 500 nM)	no binding (tested: 500 nM)	no binding (tested: 500 nM)	no binding (tested: 500 nM)	no binding (tested: 500 nM)	no binding (tested: 500 nM)	no binding (tested: 500 nM)	no binding (tested: 500 nM)	no binding (tested: 500 nM)	no binding (tested: 500 nM)	0.4 nM	FXIa IC50 nM (tri-peptide substrate) (human FXIa [12]): > 1000 nM; FXIIa Activation + HK Inhibition (IC50, nM) [13]: 6 nM; FXIIa Activation no HK Inhibition (IC50, nM) [13]: 14 nM; FXI Autoactivation IC50 nM (on dextran sulfate) [14]: 5.5 nM
αFXI-18611 IgG4 HC (S228P)(E1)(L105)/LC Kappa (antibody, V domains shown, Fully human IgG4 (S228P)/kappa; also called αFXI-18611 mAb) VH: EVQLQESGPGLVKPSETLSLTCAVSGYSISSGYFWGWIRQPPGKGLEWIGSILHSGVTYYNPSLKSRVTISVDTSKNQFSLKLSSVTAADTAVYYCARDRTTVSLIEYFQHWGQGTLVTVSS VL: not shown	0.0554 nM	0.0892 nM	0.175 nM	0.0529 nM	0.1 nM	0.18 nM	no binding (tested: 500 nM)	no binding (tested: 500 nM)	no binding (tested: 500 nM)	no binding (tested: 500 nM)	no binding (tested: 500 nM)	no binding (tested: 500 nM)	no binding (tested: 500 nM)	no binding (tested: 500 nM)	no binding (tested: 500 nM)	no binding (tested: 500 nM)	no binding (tested: 500 nM)	no binding (tested: 500 nM)	no binding (tested: 500 nM)	1 nM	binding result [15]: no binding (tested: 500 nM); FXIa IC50 nM (tri-peptide substrate) (human FXIa [12]): > 1000 nM; FXIIa Activation + HK Inhibition (IC50, nM) [13]: 7.6 nM; FXIIa Activation no HK Inhibition (IC50, nM) [13]: 34 nM; FXI Autoactivation IC50 nM (on dextran sulfate) [14]: 3.3 nM
